B1: parental Oslo-2 monoclonal antibody (antibody, V domains shown)
VH: EVQILETGGGLVKPGGSLRLSCATSGFNFNDYFMNWVRQAPGKGLEWIAQIRNKNYNYATYFAESLEGRFTISRDDSKSSVYLQVNSLRAEDTALYYCTELRYDYWGQGVMVTVSS
VL: DIVMTQSPFSLAVSEGEMVTINCKSSQSLLSSGNQKNNLAWYQQKPGQSPKLLIYYASTRQSGVPDRFIGSGSGTDFTLTISDVQAEDLADYYCLQHYSSPYTFGAGTKLELK
notes: also called Oslo-2 antibody; Oslo-2 parental antibody
B2: Oslo-2 mAb variant Mutant 4 (L:S31W/L:H107W) (antibody, V domains shown)
VH: B1 VH
VL: B1 VL with S31W, H97W, L112I
notes: Only variable domains are tied to the molecule; also called Variant 4; variant 4
B3: Oslo-2 mAb variant Mutant 5 (L:S31M) (antibody, V domains shown)
VH: B1 VH
VL: B1 VL with S31M, L112I
notes: Only variable domains are tied to the molecule; also called Variant 5; variant 5

Numbering of substitutions follows the chain as printed. Names and notes keep the numbering of the source.

For the test, the target named is antigen derived from p95HER2 (protein sequence …). The test is described as follows: indirect ELISA, antigen coated at 2.5 ug/mL, antibody in 3-fold dilutions from 3.0 ug/mL, absorbance at 450 nm. Here is the method:
Antibody binding was determined by indirect ELISA. A microtitre plate was coated with 50 μL antigen (protein sequence: […]) (SEQ ID NO: 36) at 2.5 μg/mL for 1 hour with shaking at 300 rpm then blocked with 200 μL 1% casein in PBS for 16 hours at 4° C. The plate was washed twice with PBS containing 0.05% Tween-20. In a separate offline microplate, antibody test samples were prepared in duplicate in a 3-fold serial dilution starting at 3.0 ug/mL. 50 μL of each test sample was transferred to the assay plate and incubated for 1 hour with shaking at 300 rpm. The plate was washed four times with PBS containing 0.05% Tween-20. 50 μL of horse radish peroxidase (HRP) labelled anti-human IgG antibody (catalogue number A8792, Sigma) at a dilution of 1:4000 was added to each well and incubated for 1 hour with shaking at 300 rpm. The plate was washed four times with PBS containing 0.05% Tween-20 and twice with water. 100 μL Tetramethylbenzidine (TMB) substrate (catalogue number 10076433, Fisher) was added and incubated for 10 minutes. The reaction was stopped by addition of 50 μL IM HCl and absorbance was measured at 450 nm using a Byonoy plate reader.
In the case of B1, the binding result was “binds”.

With B2, the binding result is given as “binds”.

With B3, the binding result was “binds”.

(Values after US20260263520A1 (OSLO UNIVERSITETSSYKEHUS HF, published 2026).)
